This note sets out measurements from US20120171209A1 (Ablynx, published 2012).

Where a chain is given by its changes, count along the chain named.

The target of assay [1] is T1, cyno IL-6R on CHO-K1 cells, clone CyIL6R 405 (cynomolgus monkey (extracellular domain), UniProt A0A2K5WN54 60-499).
T1 construct: whole, on cells; chimeric construct on cells; also called CHO K1-cynomolgous IL-6R
T1 sequence: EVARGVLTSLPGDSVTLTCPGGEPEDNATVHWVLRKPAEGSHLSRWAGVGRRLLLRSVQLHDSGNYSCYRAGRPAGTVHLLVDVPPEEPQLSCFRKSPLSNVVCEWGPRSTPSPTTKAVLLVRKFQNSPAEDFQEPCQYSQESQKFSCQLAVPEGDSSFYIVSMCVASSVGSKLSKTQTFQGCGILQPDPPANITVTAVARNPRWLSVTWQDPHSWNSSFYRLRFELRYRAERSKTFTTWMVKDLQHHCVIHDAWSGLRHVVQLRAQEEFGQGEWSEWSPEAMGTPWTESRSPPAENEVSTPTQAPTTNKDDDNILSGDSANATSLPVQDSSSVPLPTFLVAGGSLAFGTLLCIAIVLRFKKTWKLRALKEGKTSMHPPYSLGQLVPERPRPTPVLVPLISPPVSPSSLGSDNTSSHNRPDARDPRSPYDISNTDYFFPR
Put plainly: FMAT on CHO cells, competitor labelled Reference IgG. As to the method: Eleven inhibitory Nanobodies were tested in competition with labelled Reference IgG for binding to
CHO cells expressing hIL-6R or cynoIL-6R.

In assay [2] the target is IL-6R on the surface of TF-1 cells (UniProt P08887). Put plainly: cell-based or functional assay.
Assay [3] deals with T2, human soluble IL-6R, recombinant (human, UniProt P08887 20-358).
T2 construct: also called human IL6-R; bio-IL-6R
T2 sequence (looked up): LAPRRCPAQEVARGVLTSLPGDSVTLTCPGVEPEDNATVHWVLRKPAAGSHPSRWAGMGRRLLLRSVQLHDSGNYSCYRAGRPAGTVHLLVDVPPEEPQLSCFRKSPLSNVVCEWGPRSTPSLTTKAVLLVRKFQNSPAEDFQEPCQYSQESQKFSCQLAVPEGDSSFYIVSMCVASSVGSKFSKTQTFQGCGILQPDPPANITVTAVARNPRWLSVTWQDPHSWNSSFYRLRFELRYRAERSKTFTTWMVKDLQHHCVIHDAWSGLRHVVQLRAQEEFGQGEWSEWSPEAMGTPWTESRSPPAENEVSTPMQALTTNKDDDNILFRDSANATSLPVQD
Put plainly: Biacore, periplasmic extract. As to the method: Periplasmic extracts of representative family clones were also analyzed on Biacore. Dissociation curves were used to calculate koff rates. koff rates are depicted in Table C-6.

The target in assay [4] is cynomolgus IL-6R used in Biacore (cynomolgus monkey). Put plainly: Biacore, periplasmic extract.
The next assay deals with T3, hybrid IL-6R (human, with rat sequence in domain I).
T3 construct: produced in HEK.EBNA cells and purified
T3 chain: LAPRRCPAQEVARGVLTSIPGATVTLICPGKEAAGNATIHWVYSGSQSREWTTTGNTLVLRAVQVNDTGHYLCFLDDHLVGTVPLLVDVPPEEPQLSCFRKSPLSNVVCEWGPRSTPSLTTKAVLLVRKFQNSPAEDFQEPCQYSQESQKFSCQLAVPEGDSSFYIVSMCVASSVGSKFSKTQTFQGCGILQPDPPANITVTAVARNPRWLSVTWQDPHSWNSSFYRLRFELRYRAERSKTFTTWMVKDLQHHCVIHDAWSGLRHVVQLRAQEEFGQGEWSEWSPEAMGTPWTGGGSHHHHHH
Put plainly: sandwich ELISA, coated hybrid IL-6R, anti-myc-HRP detection. As to the method: The panel of purified Nanobodies was tested by standard sandwich ELISA with coated human IL-6R versus hybrid IL-6R (see Example 3). Anti-myc-horseradish peroxidase (AbD Serotec, Oxford, UK) was used as a detection antibody. Only Nanobodies with koff rates that were low enough to give a positive signal towards human IL-6R are depicted.

In assay [5] the target is cynomolgus soluble IL-6R, native, in cynomolgous plasma (cynomolgus monkey). Put plainly: ELISA 2, cyno plasma sIL-6R, periplasmic extract, competitor IL-6.

Sequence of IL-6R on the surface of TF-1 cells (P08887 20-468 limits assumed): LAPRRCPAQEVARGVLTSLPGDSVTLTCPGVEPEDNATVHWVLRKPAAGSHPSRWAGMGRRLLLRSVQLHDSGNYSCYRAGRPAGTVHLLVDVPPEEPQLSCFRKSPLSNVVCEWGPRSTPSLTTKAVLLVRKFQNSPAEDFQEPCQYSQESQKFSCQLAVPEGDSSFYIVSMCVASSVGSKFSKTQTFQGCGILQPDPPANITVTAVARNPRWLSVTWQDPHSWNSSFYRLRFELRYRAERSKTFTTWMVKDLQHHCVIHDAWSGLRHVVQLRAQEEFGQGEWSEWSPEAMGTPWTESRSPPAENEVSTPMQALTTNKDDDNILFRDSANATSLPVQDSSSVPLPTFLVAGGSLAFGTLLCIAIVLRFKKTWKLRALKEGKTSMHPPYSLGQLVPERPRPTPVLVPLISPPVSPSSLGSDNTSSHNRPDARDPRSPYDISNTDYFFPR

B1: IL6RPMP120A5 (VHH)
VHH: EVQLVESGGGLVQAGGSLSLSCATSGRTISDDTMAWFRQAPGKEREFVAIITFNGARTHYSDSVRDRFTISRDNAKNTVYLQMNSLKSEDTAVYYCAASTKYYSSTYNYIHPAFYDIWGQGTQVTVSS
notes: family 28; also called IL6R120A5
Molecule B1 displayed an IC50 in assay [1] of 27 nM. Also, the IC50, IL-6-dependent proliferation of TF-1 cells in assay [2] amounted to 5.59 nM.

B2: IL6RPMP103C7 (VHH)
VHH: B1 VHH with I50T, N54S, N84D
notes: family 28
In assay [1], B2 returned a concentration for half-maximal inhibition (IC50) of 75 nM. This molecule showed an IC50, IL-6-dependent proliferation of TF-1 cells in assay [2] of 61.3 nM.

B3: IL6RPMP103C4 (VHH)
VHH: EVQLVESGGGLVEAGGSLRLSCAAAGRTLSSYSMAWFRQAPGKEREFVAIIRGNPSRTYHSDSVKGRFTASRDNAKNTVYLQMNRLEPEDTAVYYCAADPPPFASDYSAPQSYDYWGQGTQVTVSS
notes: family 19; also called IL6R103C4
For B3, in assay [1], the half-inhibitory concentration (IC50) was 30 nM. The koff in assay [3] and in assay [4] was 0.001 s⁻¹ throughout. This molecule yielded an IC50, IL-6-dependent proliferation of TF-1 cells in assay [2] of 15.6 nM.

B4: reference Fab (Fab, V domains shown)
VH: QVQLQESGPGLVRPSQTLSLTCTVSGYSITSDHAWSWVRQPPGRGLEWIGYISYSGITTYNPSLKSRVTMLRDTSKNQFSLRLSSVTAADTAVYYCARSLARTTAMDYWGQGSLVTVSS
VL: DIQMTQSPSSLSASVGDRVTITCRASQDISSYLNWYQQKPGKAPKLLIYYTSRLHSGVPSRFSGSGSGTDFTFTISSLQPEDIATYYCQQGNTLPYTFGQGTKVEIKR
notes: expressed in the periplasm of E. coli
For B4, the IC50 in assay [1] was 0.8 nM.

B5: IL6RPMP105E1 (VHH)
VHH: EVQLVESGGGLVQAGGSLRLSCAASGSIFSIKAMGWYRQAPGKQRELVARITSGGSTYYADSVKGRFTISRDNAKNTVYLQMNSLKPEDTAVFYCNAIVTDSDYDLGNDYWGQGTQVTVSS
notes: family 7; also called PMP105E01; IL6R105E1
B5: the IC50 in assay [1] was 13 nM. Further, the results for the koff in assay [3] and in assay [4] were 0.00041 s⁻¹ and 0.001 s⁻¹, respectively. This molecule gave an IC50, IL-6-dependent proliferation of TF-1 cells in assay [2] of 6.2 nM.

B6: IL6RPMP104B8 (VHH)
VHH: EVQLVESGGGLVQAGGSLRLSCAASGFAFDDYAIGWFRQAPGKEREGVSSISSSNGNTYYADSVRGRFTISSDNAKNTVYLQMNSLKPEDTGVYYCAAIWGIFFNEKMPVGAYDYWGQGTQVTVSS
notes: family 3; also called PMP104B08; IL6R104B8
With B6, the koff in assay [3] and in assay [4] was 0.01 s⁻¹ throughout. This molecule yielded an IC50, IL-6-dependent proliferation of TF-1 cells in assay [2] of 245 nM.

B7: IL6RPMP103H9 (VHH)
VHH: EVQLVESGGGLVQPGGSLRLSCAASKSIFDINAMYWHRQAPGKQRESVASITSGGMRNYADSVKDRFTISKDNAKNTVYLQMNGLKPDDTAVYYCGLGRYEGGVWRDYWGQGTQVTVSS
notes: family 13; also called PMP103H09; IL6R103H9
Turning to B7, the koff in assay [3] and in assay [4] was 0.01 s⁻¹ throughout. The molecule further gave an IC50, IL-6-dependent proliferation of TF-1 cells in assay [2] of 1470 nM.

B8: IL6RPMP101B12 (VHH)
VHH: EVQLVESGGGLVQPGGSLRLSCAASGVTLDYYAIGWFRQAPGKEREGVSSISSNDGSTFYADSVKGRFTISRDKAKNTVYLQMNSLKPEDTAVYYCAATYLTAQAVGVPVAYYEFDYWGQGTQVTVSS
notes: family 2; also called IL6R101B12
Take B8: in the assay with hybrid IL-6R, the binding result is given as “no binding”.

B9: IL6RPMP104E4 (VHH)
VHH: EVQLVESGGGTVQAGGSLKLSCAASGRTFTNYAMGWFRQAPGKEREFVAAIAYATHFADSVKGRFTISRGNAKNTVYLQMNSLKPEDTAVYYCAADLSLSKMVSKITSDMDYWGKGTLVTVSS
notes: family 8; also called PMP104E04; IL6R104E4
On to B9, for which the koff in assay [3] was found to be 0.00075 s⁻¹; in assay [4], 0.00045 s⁻¹. Moreover, the binding result with hybrid IL-6R is listed as “no binding”.

B10: IL6RPMP108E1 (VHH)
VHH: EVQLVESGGGLVQAGGSLRLSCAASGFTFDDYDIGWFRQAPGKEREGVSGISSSDGNTYYADSVKGRFTISSDNAKNTVYLQMNSLKPEDTAVYYCAAEPPDSSWYLDGSPEFFKYWGQGTQVTVSS
notes: family 20; also called PMP108E01
For the molecule B10, the koff in assay [3] was determined as 0.0001 s⁻¹; in assay [4], 0.001 s⁻¹. For the same molecule, the IC50, IL-6-dependent proliferation of TF-1 cells in assay [2] came out at 0.149 nM.

B11: IL6RPMP107A1 (VHH)
VHH: EVQLVESGGGLVQAGGSLNLSCNASGDIGSINAMGWYRQAPGQQREWVAVITDTDSTIYPDSVKGRFAISRDGAKNTVHLRMSSLKPEDTAVYYCNAYQAGWGDYWGQGTQVTVSS
notes: also called IL6R107A1
Turning to B11, the koff in assay [3] came to 0.00075 s⁻¹; in assay [4], 0.01 s⁻¹. Further, the IC50, IL-6-dependent proliferation of TF-1 cells in assay [2] was found to be 4.05 nM.

B12: IL6RPMP107H2 (VHH)
VHH: KVQLVESGGGLVQPGGSLRLSCAASGFTFSSYAMSWVRRAPGKGLEWVSAINSDGTGSSYAPFVTGRFTASRDNAKNTLYLQMNSLKPEDTAVYYCTNSNRYDYADFSAVRGQGTQVTVSS
notes: family 27; also called IL6R107H2
As for B12, the koff in assay [3] was 0.0001 s⁻¹. Further, the OD450 ratio sample/blank in assay [5] was 0.6.

B13: IL6RPMP107A9 (VHH)
VHH: EVQLVESGGGLVQAGGSLRLSCAASGGIFSDMFMGWFRQAPGKSRESVARISPSGNTFYQDSVRGRFTISTDNAKNTVYLQMNNLKPEDTAVYYCAANVGVTGSYEYWGQGTQVTVSS
notes: family 21; also called IL6R107A9
Regarding B13, the koff in assay [3] and in assay [4] was 0.01 s⁻¹ throughout. The IC50, IL-6-dependent proliferation of TF-1 cells in assay [2] came out at 349 nM.
